The text below walks through data of publication PMC5385555, “Molecular basis for the behavioral effects of the odorant degrading enzyme Esterase 6 in Drosophila” (Scientific Reports, 2017).

Substrate in series [1]: CC(=O)Oc1ccc2ccccc2c1
Description: UV/vis substrate-loss assay. It is filed as biochemical, Drosophila melanogaster. The following applies: Tris-HCl pH 8.0, 25 °C, 5% ethanol.

Substrate in series [2]: CC(=O)Oc1ccc([N+](=O)[O-])cc1
Description: UV/vis substrate-loss assay. The format is biochemical, Drosophila melanogaster. Conditions: Tris-HCl pH 8.0, 25 °C, 5% ethanol (Table S1), Fig. S1 without ethanol.

B1: EST6 (wildtype EST6, EST6-WT) (Drosophila melanogaster) (protein)
chain: SDTDDPLLVQLPQGKLRGRDNGSYYSYESIPYAEPPTGDLRFEAPEPYKQKWSDIFDATKTPVACLQWDQFTPGANKLVGEEDCLTVSVYKPKNSKRNSFPVVAHIHGGAFMFGAAWQNGHENVMREGKFILVKISYRLGPLGFVSTGDRDLPGNYGLKDQRLALKWIKQNIASFGGEPQNVLLVGHSAGGASVHLQMLREDFGQLARAAFSFSGNALDPWVIQKGARGRAFELGRNVGCESAEDSTSLKKCLKSKPASELVTAVRKFLIFSYVPFAPFSPVLEPSDAPDAIITQDPRDVIKSGKFGQVPWAVSYVTEDGGYNAALLLKERKSGIVIDDLNERWLELAPYLLFYRDTKTKKDMDDYSRKIKQEYIGNQRFDIESYSELQRLFTDILFKNSTQESLDLHRKYGKSPAYAYVYDNPAEKGIAQVLANRTDYDFGTVHGDDYFLIFENFVRDVEMRPDEQIISRNFINMLADFASSDNGSLKYGECDFKDNVGSEKFQLLAIYIDGCQNRQHVEFP
notes: wildtype, baculovirus expressed, semi-purified; N-terminal signal peptide of 63 bp (21 residues) in the gene
Turning to B1, the Michaelis-Menten constant (Km) turned out to be 121 ± 6 µM in series [1] and 269 ± 18 µM in series [2]. Further, the kcat is reported as 135 ± 2 s-1 (head prints M.s-1) in series [1] and 105 ± 2 s-1 (head prints M.s-1) in series [2].

Usually Km stands for the concentration of substrate that gives half-maximal velocity.
